Earlier results as cited in publication PMC4034509, “Overcoming co-product inhibition in the nicotinamide independent asymmetric bioreduction of activated C=C-bonds using flavin-dependent ene-reductases” (Biotechnology and Bioengineering, 2013).

Molecular target: Tyr206 (UniProt position 206, …)
Details: Not stated. The value is discussed in the context of the phenol/phenolate charge-transfer complex with the oxidised flavin in the EBP1 active site.

B1: Estrogen binding protein EBP1 (old yellow enzyme homologue) (Candida albicans) (protein)
chain: MTIESTNSFVVPSDTKLIDVTPLGSTKLFQPIKVGNNVLPQRIAYVPTTRFRASKDHIPSDLQLNYYNARSQYPGTLIITEATFASERGGIDLHVPGIYNDAQAKSWKKINEAIHGNGSFSSVQLWYLGRVANAKDLKDSGLPLIAPSAVYWDENSEKLAKEAGNELRALTEEEIDHIVEVEYPNAAKHALEAGFDYVEIHGAHGYLLDQFLNLASNKRTDKYGCGSIENRARLLLRVVDKLIEVVGANRLALRLSPWASFQGMEIEGEEIHSYILQQLQQRADNGQQLAYISLVEPRVTGIYDVSLKDQQGRSNEFAYKIWKGNFIRAGNYTYDAPEFKTLINDLKNDRSIIGFSRFFTSNPDLVEKLKLGKPLNYYNREEFYKYYNYGYNSYDESEKQVIGKPLA
  pKa: 9.4
